Test results: patent US20260116983A1 (University of California, published 2026)
Numbering of substitutions follows the chain as printed.

T1: cynomolgus uPAR (recombinant) (cynomolgus monkey, UniProt Q9GK78 23-303, limits assumed)
T1 construct: also called cyno uPAR; AF647-cyno uPAR
T1 sequence (looked up): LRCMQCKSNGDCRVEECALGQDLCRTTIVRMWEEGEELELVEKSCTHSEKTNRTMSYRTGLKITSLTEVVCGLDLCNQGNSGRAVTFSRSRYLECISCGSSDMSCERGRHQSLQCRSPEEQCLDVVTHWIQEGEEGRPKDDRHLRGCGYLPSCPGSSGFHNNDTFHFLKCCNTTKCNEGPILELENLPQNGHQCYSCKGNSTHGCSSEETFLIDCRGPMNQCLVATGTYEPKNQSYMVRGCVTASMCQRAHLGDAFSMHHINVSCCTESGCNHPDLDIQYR

B1: 11857 HC1 + LC1 (humanized) (antibody, V domains shown)
VH: EVQLVQSGAEVKKPGATVKISCKVSGYTFTDYYMNWVQQAPGKSLEWMGNINPNNGGTDYNQKFQGRVTITADKSTSTAYMELSSLRSEDTAVYYCARSYGSRFPYWGLGTLVTVSS
VL: DIQMTQSPSSLSASVGDRVTITCRASQDITNYLSWYQQKPGGTVKLLLYYTAVLQSGFPSRFSGSGSGADYTLTISSLQPEDFATYYCQQGHTLPWTFGGGTKVEIK
notes: detected with anti-human Fc antibody
B2: 11857 HC2 + LC1 (humanized) (antibody, V domains shown)
VH: B1 VH with T17S, I20V, V24A, Q38R, N61S, A72V, K74T, T76A
VL: B1 VL
notes: as for B1
B3: 11857 HC2 + LC2 (humanized) (antibody, V domains shown)
VH: B1 VH with T17S, I20V, V24A, Q38R, N61S, A72V, K74T, T76A
VL: B1 VL with L48I, Y49F, Y71F, F83V
notes: as for B1
B4: 11857 HC1 + LC2 (humanized) (antibody, V domains shown)
VH: B1 VH
VL: B1 VL with L48I, Y49F, Y71F, F83V
notes: as for B1
B5: 11857 HC3 + LC2 (humanized) (antibody, V domains shown)
VH: EVQLVQSGAEVKKPGASVKVSCKASGYTFTDYYMNWVRQAPGKSLEWMGNINPNNGGTDYNQKFQGRVTLTVDTSISTAYMELSRLRSDDTVVYYCARSYGSRFPYWGLGTLVTVSS
VL: B1 VL with L48I, Y49F, Y71F, F83V
B6: 11857 HC3 + LC1 (humanized) (antibody, V domains shown)
VH: B5 VH
VL: B1 VL
notes: as for B1
B7: 3159 HC1 + LC3 (humanized) (antibody, V domains shown)
VH: QVTLRESGPALVKPTQTLTLTCTLSGFSLSTSGMGVSWIRQPPGKALEWLAHIYWDDDKRYSTSLKTRLTISKDASKDQVVLTMTNMDTVDTATYYCGRRVRNYFSGTSYWYFDVWGTGTLVTVSS
VL: DIVMTQSPLSLPVTPGEPASISCRSSQNILHRTGNTYLDWYLQKPGQSPQLLIYKVSNRFSGVPDRFSGSGSGTDFTLKISRVEAEDVGVYYCFQGSYVPFTFGQGTKLEIK
notes: as for B1
B8: 3159 HC3 + LC1 (humanized) (antibody, V domains shown)
VH: B7 VH with V2I, R5K, A10T, S62N, T63P, T67S, S72T
VL: B7 VL with S7T, P12S, E17Q, R24K, D39E, S48P
notes: as for B1
B9: 3159 HC3 + LC2 (humanized) (antibody, V domains shown)
VH: B7 VH with V2I, R5K, A10T, S62N, T63P, T67S, S72T
VL: B7 VL with I2V, P15L, E17Q, D39E, Y41F, L42Q, K44R, Q50R
notes: as for B1
B10: 3159 HC2 + LC1 (humanized) (antibody, V domains shown)
VH: B7 VH with R5K, A10V, Q16E, L24V, A46G, T63P, T67S
VL: B7 VL with S7T, P12S, E17Q, R24K, D39E, S48P
notes: as for B1
B11: 3159 HC2 + LC2 (humanized) (antibody, V domains shown)
VH: B7 VH with R5K, A10V, Q16E, L24V, A46G, T63P, T67S
VL: B7 VL with I2V, P15L, E17Q, D39E, Y41F, L42Q, K44R, Q50R
notes: as for B1
B12: 3159 HC1 + LC2 (humanized) (antibody, V domains shown)
VH: B7 VH
VL: B7 VL with I2V, P15L, E17Q, D39E, Y41F, L42Q, K44R, Q50R
notes: as for B1
B13: 3159 HC2 + LC3 (humanized) (antibody, V domains shown)
VH: B7 VH with R5K, A10V, Q16E, L24V, A46G, T63P, T67S
VL: B7 VL
notes: as for B1
B14: 3159 HC3 + LC3 (humanized) (antibody, V domains shown)
VH: B7 VH with V2I, R5K, A10T, S62N, T63P, T67S, S72T
VL: B7 VL
notes: as for B1
B15: 3159 HC1 + LC1 (humanized) (antibody, V domains shown)
VH: B7 VH
VL: B7 VL with S7T, P12S, E17Q, R24K, D39E, S48P
notes: as for B1
B16: Antibody 3159 (antibody, human IgG1, V domains shown)
VH: QVTLKESGPGILQSSLTLSLTCSLSGFSLSTSGMGVSWIRQPSGKGLEWLAHIYWDDDKRYNPSLKTRLTISKDASRDQVFLKIISVDTADTGTYYCGRRVRNYFSGTSYWYFDVWGTGTTVTVSS
VL: DVLMTQTPLSLSVSLGDQASISCRSSQNILHRTGNTYLEWYLQKPGQSPKLLIYKVSNRFSGVPDRFSGSGSGTDFTLKISRLEAEDLGVYYCFQGSYVPFTFGSGTKLEMK
notes: Chimeric: mouse VH/VL linked to Herceptin (trastuzumab) human IgG1 / kappa constant regions
B17: Antibody 8163 (antibody, human IgG1, V domains shown)
VH: EVQLVESGGGLVQPGESLTLSCDSNEFDFPSHDMSWVRKTPEKRLELVAAIDSDGGLTYYSNSRERRFIISRDNTKNTLYLQMRSLRSEDTALYYCARRRASYWYFDVWGTGTTVTVSS
VL: DILLTQSPAILPVSPGERVSFSCRASQNIGTSIHWYQQRTNGSPRLLIKYASESISGIPSRFSGSGSGTDFTLSINGVESEDIGDYYCQQSNSWPTFGGGTKLEIK
notes: as for B16
B18: Antibody 3595 (antibody, human IgG1, V domains shown)
VH: EVQLRQSGPELVKPGASVKISCKASGYTFTDYYMNWVKQSHEKSLEWIGNINPNNGGTDYNQKFKGKATLTVDKSSSTAYMELRSLTSEDSAVYYCARSYGSRFPYWGLGTLVTVSA
VL: DIQMTQTTSSLSASLGDRVTISCRASQDITNYLSWYQQKPDGTVKLLIFYTSFLQSGVPLRFSGSGSGADYSLTISNLEQEDFATYFCQQGHTLPWTFGGGTKLEIK
notes: as for B16
B19: 11857 HC1 + LC3 (humanized) (antibody, V domains shown)
VH: B1 VH
VL: B1 VL with Y36F, L48I, Y71F
notes: as for B1

What follows are binders tested against T2, human uPAR (recombinant protein used in ELISA and BLI) (human, UniProt Q03405 23-305, limits assumed) (assay: BLI (Octet HTX)).
T2 construct: Whole entry named; also called biotinylated human uPAR
Protocol: (§1) Kinetic constant ranges for Octet HTX were between 1 mM to 10 pM.

T2 sequence (Q03405 23-305 limits assumed): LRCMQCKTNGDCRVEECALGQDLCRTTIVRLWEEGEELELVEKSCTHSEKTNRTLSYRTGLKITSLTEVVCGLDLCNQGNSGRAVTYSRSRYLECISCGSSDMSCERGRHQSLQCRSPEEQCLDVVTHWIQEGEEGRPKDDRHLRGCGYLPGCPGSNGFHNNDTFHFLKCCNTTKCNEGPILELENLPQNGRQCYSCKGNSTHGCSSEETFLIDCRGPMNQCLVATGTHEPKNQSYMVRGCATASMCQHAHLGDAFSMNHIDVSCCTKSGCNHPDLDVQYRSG

Binder	Kd [nM]
B1	127
B2	125
B3	45.7
B4	53.4
B5	75.6
B6	147
B7	5.58
B8	< 0.01
B9	4.66
B10	< 0.01
B11	< 0.01
B12	< 0.01
B13	< 0.01
B14	7.39
B15	6.79
B16	< 0.01

What follows are binders tested against T1, cynomolgus uPAR (recombinant) (assay: BLI (Octet HTX)).
Protocol: as §1

Binder	Kd [nM]
B1	69.7
B2	307
B3	59.5
B4	32.4
B5	59.6
B6	83.9
B7	162
B8	202
B9	2240
B10	41.1
B11	404
B12	5870
B13	255
B14	58.5
B15	556
B16	934

These binders were tested against T3, human uPAR displayed on the surface of MDA-MB-231 cells (human, UniProt Q03405 23-305) (assay: cell-based or functional assay).
T3 sequence (Q03405 23-305): as the sequence (Q03405 23-305 limits assumed) above

Binder	ADCC PBMCs EC50, fold lower than 2G10 [fold]
B17	10 to 96

Target: T3, human uPAR displayed on the surface of …
Assay: cell-based or functional assay
Remark: another data set of the same source

Binder	ADC Cytotoxicity EC50 [nM]	ADC Cytotoxicity Max % [%]	ADCC NK-92 EC50 [nM]	ADCC NK-92 Max % [%]	ADCC PBMCs EC50 [nM]	ADCC PBMCs Max % [%]	Adhesion blocking EC50 [µM]
B17	0.57	28.7	1.14	18.8	0.09	57.5	5.4
B18	0.66	34.8	0.2	21.9	0.1	55.6	> 10
B16	0.75	32	0.887	28.2	0.11	47.4	1.61

The binders below were run against T1, cynomolgus uPAR (recombinant) (assay: ELISA, plate-coated cyno uPAR).
Protocol: (§2) To ensure the cross-reactivity of the 12 lead candidates was maintained with the Herceptin constant region, their binding to human and cyno uPAR was evaluated by ELISA (FIG. 3A).
(§3) Nunc MaxiSorp™ flat-bottom 96-well plates were coated with human or cyno uPAR (3.19 μg/mL) at 4° C. overnight, and plates were washed with wash buffer and blocked with 5% non-fat dry milk. A standard log serial dilution of each antibody candidate was added to the uPAR-coated plates and incubated at 4° C. overnight. Plates were washed three times and incubated with 50 μL of HRP-conjugated goat anti-human (H+L) antibody (Biorad). After a two-hr incubation, plates were washed, and 100 μL of 1-Step™ Turbo TMB-ELISA Substrate Solution (Thermo Scientific) was added to each well. The reaction was quenched with 2M H₂SO₄ for 5 min at room temperature, and the optical density of each well was measured at 450 nm using a SpectraMax190 microplate reader.

Binder	EC50 [nM]
B17	0.15
B18	0.1
B16	0.27

Each binder was assayed against T2, human uPAR (recombinant protein used in …) (assay: ELISA, plate-coated human uPAR).
Protocol: as §2, §3

Binder	EC50 [nM]
B17	0.41
B18	0.05
B16	0.53

Each binder was assayed against T3, human uPAR displayed on the surface of … (assay: flow cytometry on MDA-MB-231 cells).

Binder	EC50 [µg/mL]
B1	0.695
B2	0.432
B19	1.21
B3	0.212
B4	0.223
B6	0.304
B7	0.27
B8	0.488
B9	0.214
B10	0.379
B11	0.32
B12	0.518
B13	0.205
B14	0.185
B15	0.187
B16	0.188

The binders below were run against T3, human uPAR displayed on the surface of … (assay: flow cytometry (FACS) on MDA-MB-231 cells).
From the text: Antibodies generated by immunizing animals with suPAR, which lacks the cell surface anchoring motif, can target protein regions that are not accessible for membrane-bound uPAR. […] Thus, FACS was applied to evaluate the cell-surface uPAR recognition by each antibody candidate under different concentrations of MDA-MB-231 cells, a triple-negative breast cancer cell line with high uPAR expression (FIG. 2).
MDA-MB-231 cells were harvested with TrypleE and resuspended in FACS buffer (PBS+1% BSA) to 2×10⁶ cells/mL before being aliquoted to a 96-well plate (100 μL, 2×10⁵ cells/well). Cells were pelleted by centrifuging the microplate for 5 min at 400 RCF and resuspended in PBS containing serially diluted antibodies to a maximum concentration of 600 nM, followed by a 50 min incubation at 4° C. Cells were then washed three times with PBS and incubated with an AlexaFluor488-conjugated goat anti-human IgG for 50 min at 4° C. in the dark. Finally, cells were washed twice with FACS buffer and resuspended in 80 μL for FACS analysis in a Bio-rad S3e Cell Sorter.

Binder	Cellular recognition Max % [%]	EC50 [nM]
B17	2330	0.69
B18	2280	0.453
B16	1830	0.916
